In PMC6874086:
Like-named read-outs stand apart in the source and are kept apart here.

What was measured:
[1] = molecular target: VPS4A/B (UniProt Q9UN37); settings: parent: est. 100; read off a plot
[2] = molecular target: VPS4A/B (UniProt Q9UN37); settings: parent: est. 100; read off a plot; remark: listed apart in the source

Sequence of UniProt Q9UN37 (Q9UN37 whole entry): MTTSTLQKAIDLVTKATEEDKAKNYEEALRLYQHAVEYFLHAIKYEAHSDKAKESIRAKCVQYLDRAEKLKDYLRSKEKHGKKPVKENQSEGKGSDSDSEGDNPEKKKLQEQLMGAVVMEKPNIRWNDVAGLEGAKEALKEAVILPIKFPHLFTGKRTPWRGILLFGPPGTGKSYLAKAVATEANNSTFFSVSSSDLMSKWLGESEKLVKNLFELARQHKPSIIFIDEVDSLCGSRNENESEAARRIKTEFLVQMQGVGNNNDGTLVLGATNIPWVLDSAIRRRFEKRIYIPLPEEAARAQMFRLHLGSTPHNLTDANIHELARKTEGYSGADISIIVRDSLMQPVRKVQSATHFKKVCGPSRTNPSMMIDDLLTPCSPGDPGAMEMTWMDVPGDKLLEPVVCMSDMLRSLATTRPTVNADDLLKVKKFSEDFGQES

LCMV Z WT with a C-terminal streptavidin binding peptide (SBP) tag (from UniProt P18541) K5R; K10R; K33R; K38R; K69R; K77R
percent of parent [1]: 23 % of WT
percent of parent [2]: 24 % of WT
